Measured values from patent US6344362.

Molecular target: SCCA1 recombinant protein expressed on transfected HepG2 and CHO cells (human)

HBV viral particles present in the serum of patients with acute hepatitis B
HBV-DNA values of transfected cell lines relative to control cell lines: 8 times
